From article doi:10.1101/2020.11.04.367136 (bioRxiv, 2020)

T1: GFP–Rad55–Rad57 complex (His6–GFP–Rad55 and FLAG–Rad57) (S. cerevisiae, UniProt P38953 1-406; P25301 1-460)
T1 sequence (looked up) 1: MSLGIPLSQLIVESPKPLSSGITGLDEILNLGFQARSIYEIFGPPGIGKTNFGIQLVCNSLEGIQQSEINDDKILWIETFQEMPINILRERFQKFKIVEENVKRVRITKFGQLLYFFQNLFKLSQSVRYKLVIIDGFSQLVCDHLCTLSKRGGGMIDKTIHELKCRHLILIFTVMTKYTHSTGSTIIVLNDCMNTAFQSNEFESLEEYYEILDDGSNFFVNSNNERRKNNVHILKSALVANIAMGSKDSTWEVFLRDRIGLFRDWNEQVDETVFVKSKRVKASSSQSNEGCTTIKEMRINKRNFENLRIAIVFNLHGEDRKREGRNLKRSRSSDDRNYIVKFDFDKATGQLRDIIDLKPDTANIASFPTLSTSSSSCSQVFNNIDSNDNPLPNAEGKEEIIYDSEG
T1 sequence (looked up) 2: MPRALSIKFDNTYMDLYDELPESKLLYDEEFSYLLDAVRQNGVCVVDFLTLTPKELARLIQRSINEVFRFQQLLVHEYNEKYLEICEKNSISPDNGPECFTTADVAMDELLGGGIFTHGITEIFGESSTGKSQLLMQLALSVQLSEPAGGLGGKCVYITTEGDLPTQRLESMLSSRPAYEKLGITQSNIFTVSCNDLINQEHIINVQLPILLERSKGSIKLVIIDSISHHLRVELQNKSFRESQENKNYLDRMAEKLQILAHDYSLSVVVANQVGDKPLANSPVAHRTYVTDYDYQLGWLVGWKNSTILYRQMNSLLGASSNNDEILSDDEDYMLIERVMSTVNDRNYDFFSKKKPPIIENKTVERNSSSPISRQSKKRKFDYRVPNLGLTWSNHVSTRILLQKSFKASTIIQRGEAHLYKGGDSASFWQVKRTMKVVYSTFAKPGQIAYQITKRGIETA

B1: Rad51 (natural protein, S. cerevisiae, UniProt P25454 1-400, looked up)
chain: MSQVQEQHISESQLQYGNGSLMSTVPADLSQSVVDGNGNGSSEDIEATNGSGDGGGLQEQAEAQGEMEDEAYDEAALGSFVPIEKLQVNGITMADVKKLRESGLHTAEAVAYAPRKDLLEIKGISEAKADKLLNEAARLVPMGFVTAADFHMRRSELICLTTGSKNLDTLLGGGVETGSITELFGEFRTGKSQLCHTLAVTCQIPLDIGGGEGKCLYIDTEGTFRPVRLVSIAQRFGLDPDDALNNVAYARAYNADHQLRLLDAAAQMMSESRFSLIVVDSVMALYRTDFSGRGELSARQMHLAKFMRALQRLADQFGVAVVVTNQVVAQVDGGMAFNPDPKKPIGGNIMAHSSTTRLGFKKGKGCQRLCKVVDSPCLPEAECVFAIYEDGVGDPREEDE

Assays:
[1] = biological target: B1; assay: single-molecule ssDNA curtain assay
[2] = biological target: T1, GFP–Rad55–Rad57 complex (His6–GFP–Rad55 …); assay: single-molecule ssDNA curtain assay

Row | binding result [1] | koff [2] | Binder
1 | binds | – | GST–Hed1–6xHis–GFP (natural protein, S. cerevisiae, UniProt Q03937 1-162, looked up) MQQRSNRRSCSYIPLGVHNNAEKSLCTEVAPARKNKRSITTSPIVNINVVERRLFNLELEKQQLRAKNLSENTGGGSPNGGAYLDAKKGVREQDQYQGGPSKELDRLQPPPSMKKSPPRKKKSLKDLIYETNKTFYQVDSNKVKYKVGLSKKQLLPSKTVDN
2 | – | 0.00758 s⁻¹ | B1
3 | – | 0.0058 s⁻¹ | Rad51–K191R (natural protein, S. cerevisiae, UniProt P25454 1-400, looked up) MSQVQEQHISESQLQYGNGSLMSTVPADLSQSVVDGNGNGSSEDIEATNGSGDGGGLQEQAEAQGEMEDEAYDEAALGSFVPIEKLQVNGITMADVKKLRESGLHTAEAVAYAPRKDLLEIKGISEAKADKLLNEAARLVPMGFVTAADFHMRRSELICLTTGSKNLDTLLGGGVETGSITELFGEFRTGRSQLCHTLAVTCQIPLDIGGGEGKCLYIDTEGTFRPVRLVSIAQRFGLDPDDALNNVAYARAYNADHQLRLLDAAAQMMSESRFSLIVVDSVMALYRTDFSGRGELSARQMHLAKFMRALQRLADQFGVAVVVTNQVVAQVDGGMAFNPDPKKPIGGNIMAHSSTTRLGFKKGKGCQRLCKVVDSPCLPEAECVFAIYEDGVGDPREEDE
